Laboratory results: article PMC4208696

Assays:
[1] = target: Fl–hRyR1(3614–3643)p: hRyR1(3614–3643)p with a 5,6-carboxyfluorescein moiety at the N-terminus (human)
[2] = target: Fl–hRyR1(1975–1999)p: hRyR1(1975–1999)p with a 5,6-carboxyfluorescein moiety at the N-terminus (human)
[3] = target: Fl–hRyR1(1975–1999)p: hRyR1(1975–1999)p with a 5,6-carboxyfluorescein moiety at the N-terminus (human); assay: fluorescence polarisation

Chain of Fl–hRyR1(1975–1999)p: hRyR1(1975–1999)p with a 5,6-carboxyfluorescein moiety at the N-terminus (human) (P21817 1975-1999): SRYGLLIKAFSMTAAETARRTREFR
Chain of Fl–hRyR1(3614–3643)p: hRyR1(3614–3643)p with a 5,6-carboxyfluorescein moiety at the N-terminus (human) (P21817 3614-3643): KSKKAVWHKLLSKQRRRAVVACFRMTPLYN

stoichiometry N [1]: 1
stoichiometry N [2]: 1
saturation at ~100 μM CaM [3]: > 85%
Substance: full-length mammalian calmodulin (CaM_(1–148)) (from UniProt P0DP23 1-149) (natural protein)
